The values that follow come from the supplement of paper PMC10567573.

B1: CROP (parent)
chain: VFGRGDNISDVSKFLEDDKWMEE
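Note: lentivirally expressed fusions sorted by FACS into six bins by GFP to DsRed ratio, PSI derived from sequencing read proportions per bin multiplied by bin number.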

Variants of B1 are the subject of the series. Nature of the series: protein stability index of a GFP-peptide fusion (GPS, HEK-293T) (PSI 1-6); higher = more stable. As to conditions: c terminus: native.
For the variant VPGRGDNISDVSKFLEDDKWMEE, the protein stability index is 2.66. In the case of VIGRGDNISDVSKFLEDDKWMEE it was 1.8; in that of VFGRGDNISDVNKFLEDDKWMEE, 2. In the case of VFGRGDNISDVEKFLEDDKWMEE, the protein stability index was 2.56.

Take VFGRGDNISDVDKFLEDDKWMEE: the protein stability index was found to be 2. In the case of VFGRGDNISDVPKFLEDDKWMEE, the protein stability index was 1.61. Regarding VFGRGDNISDVVKFLEDDKWMEE, the protein stability index came to 1.86. On to VFGRGDNISDVIKFLEDDKWMEE, for which the protein stability index is 2.32. In the case of VFGRGDNISDVQKFLEDDKWMEE it was 2.19.

In the case of VFGRGDNISDVCKFLEDDKWMEE, the protein stability index was found to be 1.73. Consider VFGRGDNISDVTKFLEDDKWMEE, for which the protein stability index was determined as 2.67.

Regarding VFGRGDNISDVKKFLEDDKWMEE, the protein stability index turned out to be 2.2.

Take VFGRGDNISDVGKFLEDDKWMEE: the protein stability index is 1.41.

Take VFGRGDNISDVRKFLEDDKWMEE: the protein stability index is 1.92. Turning to VFGRGDNISDVHKFLEDDKWMEE, the protein stability index is 2.31. For VFGRGDNMSDVSKFLEDDKWMEE, the protein stability index is 2.05. Turning to VFGRGDNKSDVSKFLEDDKWMEE, the protein stability index was determined as 2.23.

As to VFGRGDNHSDVSKFLEDDKWMEE, the protein stability index was 1.93. On to VFGRGDNASDVSKFLEDDKWMEE, for which the protein stability index was found to be 2.35.

For the variant VFGRGDNGSDVSKFLEDDKWMEE, the protein stability index came out at 3.51. Take VFGRGDNYSDVSKFLEDDKWMEE: the protein stability index amounted to 1.74.

For the variant VFGRGDNESDVSKFLEDDKWMEE, the protein stability index was 2.9.

For VFGRGDNQSDVSKFLEDDKWMEE, the protein stability index came out at 2.07. In the case of VFMRGDNISDVSKFLEDDKWMEE it was 1.51; in that of VFHRGDNISDVSKFLEDDKWMEE, 1.88; in that of VFTRGDNISDVSKFLEDDKWMEE, 2.07. As to VFVRGDNISDVSKFLEDDKWMEE, the protein stability index is 1.51. For the variant VFRRGDNISDVSKFLEDDKWMEE, the protein stability index worked out at 2.1. With VFARGDNISDVSKFLEDDKWMEE, the protein stability index came out at 2.83. As for VFQRGDNISDVSKFLEDDKWMEE, the protein stability index came out at 2.11.

Turning to VFPRGDNISDVSKFLEDDKWMEE, the protein stability index was found to be 2.84.

Regarding VFWRGDNISDVSKFLEDDKWMEE, the protein stability index came out at 2.36. Next, VFFRGDNISDVSKFLEDDKWMEE: 1.44; VFGRGDNISDVSKFLEDDKWMEA: 4.36. Consider VFGRGDNISDVSKFLEDDKWMEV, for which the protein stability index turned out to be 4.08.

VFGRGDNISDVSKFLEDDKWMEF: the protein stability index amounted to 3.61. Take VFGRGDNISDVSKFLEDDKWMEP: the protein stability index amounted to 3.67. Consider VFGRGDNISDVSKFLEDDKWMED, for which the protein stability index was determined as 5. As for VFGRGDNISDVSKFLEDDKWMEI, the protein stability index is 4.38. Take VFGRGDNISDVSKFLEDDKWMES: the protein stability index was 4.6.

Turning to VFGRGDNISDVSVFLEDDKWMEE, the protein stability index worked out at 1.54. Next, VFGRGDNISDVSCFLEDDKWMEE: 1.74; VFGRGDNISDVSHFLEDDKWMEE: 1.71; VFGRGDNISDVSRFLEDDKWMEE: 1.89. Take VFGRGDNISDVSIFLEDDKWMEE: the protein stability index amounted to 2.69. As for VFGRGDNISDVSAFLEDDKWMEE, the protein stability index worked out at 2.29. Consider VFGRGDNISDVSTFLEDDKWMEE, for which the protein stability index was 1.72.

Take VFGRGDNISDVSFFLEDDKWMEE: the protein stability index turned out to be 2.04.

For VFGRGDNISDVSMFLEDDKWMEE, the protein stability index worked out at 2.69. On to VFGRGDNISDVSKFMEDDKWMEE, for which the protein stability index amounted to 2.06. For VFGRGDNISDVSKFQEDDKWMEE, the protein stability index came out at 3.7.

Regarding VFGRGDNISDVSKFAEDDKWMEE, the protein stability index was 3.09. With VFGRGDNISDVSKFKEDDKWMEE, the protein stability index came out at 3.01. In the case of VFGRGDNISDVSKFREDDKWMEE it was 2.91; in that of VFGRGDNISDVSKFGEDDKWMEE, 2.8. For VFGRGDNISDVSKFDEDDKWMEE, the protein stability index was determined as 1.85.

In the case of VFGRGDNISDVSKFCEDDKWMEE, the protein stability index was determined as 2.64. VFGRGDNISDVSKFPEDDKWMEE: the protein stability index came out at 2.81. On to VFGRGDRISDVSKFLEDDKWMEE, for which the protein stability index turned out to be 2.61. For the variant VFGRGDDISDVSKFLEDDKWMEE, the protein stability index turned out to be 2.89. Regarding VFGRGDYISDVSKFLEDDKWMEE, the protein stability index was found to be 1.97.

VFGRGDQISDVSKFLEDDKWMEE: the protein stability index was found to be 1.79.

For the variant VFGRGDMISDVSKFLEDDKWMEE, the protein stability index was 1.64.

For VFGRGDEISDVSKFLEDDKWMEE, the protein stability index was found to be 1.4. Take VFGRGDAISDVSKFLEDDKWMEE: the protein stability index worked out at 1.68. Regarding VFGRGDIISDVSKFLEDDKWMEE, the protein stability index was 2.21. VFGDGDNISDVSKFLEDDKWMEE: the protein stability index was found to be 2.4. For the variant VFGYGDNISDVSKFLEDDKWMEE, the protein stability index turned out to be 2.31. Turning to VFGVGDNISDVSKFLEDDKWMEE, the protein stability index is 1.9.

As for VFGTGDNISDVSKFLEDDKWMEE, the protein stability index worked out at 2.3. For VFGGGDNISDVSKFLEDDKWMEE, the protein stability index came out at 2.16.

VFGRYDNISDVSKFLEDDKWMEE: the protein stability index is 1.32. As to VFGRTDNISDVSKFLEDDKWMEE, the protein stability index was 2.63. In the case of VFGRVDNISDVSKFLEDDKWMEE it was 1.61; in that of VFGRSDNISDVSKFLEDDKWMEE, 3.13; in that of VFGRQDNISDVSKFLEDDKWMEE, 2.3. Regarding VFGRPDNISDVSKFLEDDKWMEE, the protein stability index is 2.54. Take VFGRLDNISDVSKFLEDDKWMEE: the protein stability index was 2.16.

Take VFGRNDNISDVSKFLEDDKWMEE: the protein stability index amounted to 3.26.

As for VFGRRDNISDVSKFLEDDKWMEE, the protein stability index amounted to 1.74. Next, VFGRGDNISGVSKFLEDDKWMEE: 2.11; VFGRGDNISHVSKFLEDDKWMEE: 3.06; VFGRGDNISSVSKFLEDDKWMEE: 2.09. Next, VFGRGDNISKVSKFLEDDKWMEE: 1.99; VFGRGDNISIVSKFLEDDKWMEE: 1.99; VFGRGDNISEVSKFLEDDKWMEE: 2.1. Turning to VFGRGDNISRVSKFLEDDKWMEE, the protein stability index turned out to be 1.55. For VFGRGDNISDVSKFLEDDKWPEE, the protein stability index was determined as 1.38. As to VFGRGDNISDVSKFLEDDKWFEE, the protein stability index turned out to be 2.28. As to VFGRGDNISDVSKFLEDDKWCEE, the protein stability index was 3.53. VFGRGDNISDVSKFLEDDKWWEE: the protein stability index is 1.97. For VFGRGDNISDVSKFLEDDKWEEE, the protein stability index is 4. For VFGRGDNISDVSKFLEDDKWVEE, the protein stability index was found to be 1.87. As to VFGRGDNISDVSKFLEDDKWAEE, the protein stability index came out at 1.86. Regarding VFGRGDNISDVSKFLEDDKWYEE, the protein stability index is 2.28. On to VFGRGDNISDVSKFLEDDKWTEE, for which the protein stability index was determined as 2.51. On to VFGRGDNISDVSKFLEDDKWQEE, for which the protein stability index was 2.94.
